# Measured values as given in US20180193457A1 (University of Washington, published 2018).
# B1: mAb926 (antibody, V domains shown)
# VH: QVQLQQSGAELATPGASVKMSCKASGYTSTNYWIHWVKQRPGQGLEWIGYINPTSGYTEYNQNFKDKATLTADKSSSTAYMQLTSLTSEDSAVYYCARGVIRDFWGQGTTLTVSS
# VL: DVLMTQTPLSLPVSLGDQASISCRSSQNIVHNNGNTYLEWYLQSPGQSPKLLIYKVSNRFSGVPDRFSGSGSGTDFTLKISRVEAEDLGVYYCFQGSHVPFTFGSGTKLEIK
# notes: also called mA926; mAb296
# How the values were obtained:
# [1] = target: T1, wild-type FimH adhesin variant of the uropathogenic E. coli strain J96 (FimH^wt) (uropathogenic E. coli strain J96, UniProt P08191 22-300); test: cell-based or functional assay
# [2] = target: T1, wild-type FimH adhesin variant of the …; test: SPR2 (Analytical Biopharmacy Core), FimH^wt fimbriae on CM5 chip, mAb as analyte, 1:1 Langmuir model
binder,measurement,setting,value
B1,half-maximal inhibitory concentration (IC50) of bacterial adhesion to mannosylated (yeast mannan) surfaces,[1],0.4 nM
same,Kd,[2],0.22 nM
